Biological target: human TRPM4 (transient receptor potential melastatin 4) in transfected HEK 293 cells (human, UniProt Q8TD43 1-1214)
Assay: cell-based or functional assay

Chain of human TRPM4 (transient receptor potential melastatin 4) in transfected HEK 293 cells (Q8TD43 whole entry): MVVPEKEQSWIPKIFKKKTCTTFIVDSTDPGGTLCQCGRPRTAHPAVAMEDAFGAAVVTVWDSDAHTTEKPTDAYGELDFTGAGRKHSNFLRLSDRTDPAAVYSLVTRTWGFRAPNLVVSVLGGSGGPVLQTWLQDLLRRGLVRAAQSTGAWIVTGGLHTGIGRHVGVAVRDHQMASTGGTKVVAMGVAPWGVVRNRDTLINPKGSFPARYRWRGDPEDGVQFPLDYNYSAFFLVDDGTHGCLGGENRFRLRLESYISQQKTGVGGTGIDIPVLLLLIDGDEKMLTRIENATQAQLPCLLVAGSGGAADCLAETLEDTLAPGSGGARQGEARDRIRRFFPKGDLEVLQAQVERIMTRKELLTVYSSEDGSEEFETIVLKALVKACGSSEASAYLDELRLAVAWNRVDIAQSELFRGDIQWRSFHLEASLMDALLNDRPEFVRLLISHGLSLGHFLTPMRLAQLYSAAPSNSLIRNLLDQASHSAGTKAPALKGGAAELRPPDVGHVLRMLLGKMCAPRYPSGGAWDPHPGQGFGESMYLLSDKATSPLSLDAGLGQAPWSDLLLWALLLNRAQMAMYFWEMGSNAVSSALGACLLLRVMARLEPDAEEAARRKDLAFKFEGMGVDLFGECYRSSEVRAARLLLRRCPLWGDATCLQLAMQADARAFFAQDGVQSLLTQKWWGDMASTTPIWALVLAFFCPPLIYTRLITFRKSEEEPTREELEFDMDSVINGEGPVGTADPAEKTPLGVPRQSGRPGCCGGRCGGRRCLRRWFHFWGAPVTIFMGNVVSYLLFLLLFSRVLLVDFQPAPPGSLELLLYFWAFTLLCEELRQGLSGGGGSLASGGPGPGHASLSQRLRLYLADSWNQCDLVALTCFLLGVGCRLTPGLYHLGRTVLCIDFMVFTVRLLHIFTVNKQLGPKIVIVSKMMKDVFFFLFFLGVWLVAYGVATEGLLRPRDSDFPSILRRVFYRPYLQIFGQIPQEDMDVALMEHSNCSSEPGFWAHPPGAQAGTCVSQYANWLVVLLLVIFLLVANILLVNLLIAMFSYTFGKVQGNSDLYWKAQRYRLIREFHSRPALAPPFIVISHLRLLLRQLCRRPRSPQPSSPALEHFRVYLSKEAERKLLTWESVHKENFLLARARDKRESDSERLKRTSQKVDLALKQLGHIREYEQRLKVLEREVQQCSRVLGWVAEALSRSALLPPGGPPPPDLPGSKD

B1: humanized anti-TRPM4 antibody clone A2 (VH1 + VL1) (antibody, human IgG1, kappa, V domains shown)
VH: QVQLQESGPGLVKPSQTLSLTCTVSGYSITSDYAWNWIRQHPGKGLEWIGYLSYSGVTSYNPSLKGRVTISVDTSKNQFSLKLSSVTAADTAVYYCARKGTYYRYEGSYWYFDVWGQGTTVTVSS
VL: DIQMTQSPSSLSASVGDRVTITCHANQNIDVWLSWYQQKPGKAPKLLIYKTSNLHTGVPSRFSGSGSGTDFTFTISSLQPEDIATYYCQQGQSYPLTFGGGTKLEIKR
IC50, dose-dependent inhibition of hypoxia-induced TRPM4 current increase: 1.23 µg/mL

Reference: patent US20260201028A1 (SINGAPORE HEALTH SERVICES PTE, published 2026)
